{"source": "paper PMC3999930", "about": "“Characterization of a SAM-dependent fluorinase from a latent biosynthetic pathway for fluoroacetate and 4-fluorothreonine formation in Nocardia brasiliensis” (F1000Research, 2014)", "proteins": {"B1": {"name": "NobA, SAM-dependent fluorinase (5'-fluoro-5'-deoxyadenosine synthase) from Nocardia brasiliensis ATCC 700358 (enzyme, UniProt W8JNL4 1-300, looked up)", "chain": "MTTTNGRRPIIAFMSDLGITDDSVAQCKGLMLSVCPDVTIVDICHTMQPWDVEEGARYIVDLPRLFPEGTVFATTTYPATGTTARSVALRIAHASKGGARGQWAGSGAGFERKEGSYIYIAPNNGLLTTVIKEHGYLEAYEVSSPEVIPEQPEPTFYSREMVALPSAHLAAGFPLEKVGRRLADDEIVRFERKDPELVADHDLVGYVTNIDHPFGNVWTNIHRTDLEKLGVGYGTKLRITLDGVLPFELPLSPTFADAGEIGAAVAYLSSRGYLALARNAASLAYPYNLKAGISVQVKVG", "notes": "NobA, fluorinase of Nocardia brasiliensis ATCC 700358 (HUJEG-1); NdeI-HindIII fragment in pET28a; no removal of the His tag is described; also called 5'-FDA synthase; source: E. coli BL21 (DE3), purified (Ni-NTA, dialysis)"}}, "biological_target": "the molecule itself", "experiment": "SEC; Superdex 200 GL, 50 mM phosphate buffer pH 7.8, 1 ml/min; native mass estimated from a calibration curve of standard proteins (29-669 kDa)"}
{"protein": "B1", "values": [{"measurement": "stoichiometry N", "value": 6}]}
